From the nanobody polyreactivity screen of Harvey et al. (2022)

Assay: yeast display, Sf9 membrane polyspecificity reagent, FACS + sequencing; frameworks hold sequencing errors
Summary of the method: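 Nanobodies came from a synthetic yeast display library in Saccharomyces cerevisiae BJ5465, induced with galactose for 36–48 hours and stained for 1 hour at 4 °C with 10% biotinylated, detergent-solubilized Sf9 membrane reagent. Cells were enriched on streptavidin microbeads and then FACS-sorted, with low and high (top ~1%) gates set on anti-HA fluorescence for expression and streptavidin fluorescence for reagent binding. Each polyreactivity label reflects the gate a clone came from. Genes were amplified by colony PCR, sequenced by MiSeq 2 × 250 and filtered by CDR length.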

Row | Sequence | polyreactivity (PSR sort gate)
1 | QVQLVESGGGLFQAGGSLRLSCAASGRTIQTYTMGRYRQAPGKERELYAVITTRGGRTYYADSVKGRFTISRDNAKNTFYLQINRLKPEDTGVYYCIKGIPTRSVRSYDYWGQGTQVTVSS | high polyreactivity
2 | QVQLVESGGGLFQAGGSLRLSCAASGSIFAGYAMGWSRQAPGNERELVATITSSSRTNYADSVKGRFTISRDNAKNTVYLQMNSLKPEDTAVYYCAATSFSVRFTRYYYWGQGTQVTVSS | high polyreactivity
3 | QVQLVESGGGLFQAGGSLRLSCAASGSIFLYYAMGWYRQAPGKERELDATIRRRDGSTYYADSVKGRFTISRDNAKNTVYLQMNSLIPEDTAVYYCNTAGYYWLHYTMDYWGQVTQVTVSS | high polyreactivity
4 | QVQLVESGGGLFQAGGSLRLSCAASGSIFYNYGMAWYRHAPGKERELVAAIRASGDSTYYADSVKGRFTISRDNAKNTVYLQMNSLKPEDTEVYYCAARPNQSYYGLYYYWGQGTQVTVSS | low polyreactivity
5 | QVQLVESGGGLFQAGGSLRLSCAASGSIFYYYAMGWYRQAPGKERELVAAITRSSGSTYADSVKGRFTISGDNAMYTVYVQMNSLKPEDTAVYYCATVQSDWRRNYSYYHWGQATQVTVSS | high polyreactivity
6 | QVQLVESGGGLFQAGGSLRLSCAASGSTFGTYAMGRYRPPPAKERELVAAISTGGSTYYADSVKGRFTISRDNAKNTVYLQMNSLKPEDTAVYYCAALADYVRRASDYWGQGTQVTVSS | low polyreactivity
7 | QVQLVESGGGLFQAGGSLRLSCAASGSTFGWNAMGWYRHAPGKERELVAAINKSGGRTYYADSVKGRFTISRDNAKNTVYLQMISLKPEDTAVYYCAAVTPIRVTSPDYDYWGQGTQVTVSS | low polyreactivity
8 | QVQLVESGGGLFQAGGSLRLSCAASGSTFKFNAMGWYRQAPGKEWELVAAISNRGGTTYYADSVKGRFTISRDNAKNTVYLLMNSLKQEDTAVYYCAAGRVQYYYFWGQGTQVTVSS | high polyreactivity
9 | QVQLVESGGGLFQAGGSLRLSCAASGSTFPKYEMGWYRQAPGKERELVATISSGTRTYYADSVKGRFTISRDNAKNTVYLQMNSLKPDDTAVYYCAASYQPRKGAHYGYWGQGSQVTVSS | high polyreactivity
10 | QVQLVESGGGLFQAGGSLRLSCAASGSTIWSYAMGWYRQAPGKERELVASITWSGGSTYADSVKGRFTISRDNAKNTVYFQMNRLKPEDTAVYYCARESTLTYYSDDFDYWGQGTQVTVSS | low polyreactivity
11 | QVQLVESGGGLFQAGGSLRLSCAASGSTLYEYAMGWYRQAPGKERELVAAINWSGGSTYYADSVKGRFTISRDNAKNTVYLQMNSLKPEDTAVYYCNRVKTGSTYRRRYWSMGYWGQGTQVTVSS | high polyreactivity
12 | QVQLVESGGGLFQAGGSLRLSCAATGSTFSGYAMGWYRQATGKDRELVAAIASTGRTYYADSVKGRFTISRDNAKKTVYLQMNSLKPEDTAVYYCAAKRYTVYVHKYEYWGQGTKVTVSS | high polyreactivity
13 | QVQLVESGGGLFQAGGSLRLSCAATGSTYIRYAMGWYRQAPGKEREFVAAITWSGTGTYYADSVKARFTISRDNAKNTVYLQMNSLKPEDTAVYYCAAEWSWVRYSFDYWGQGTQVTVSS | high polyreactivity
14 | QVQLVESGGGLFQAGGSLRLSCADSGRIFTSNAMGWYRQATGKVRELVAVISRRGGSTYYADSVKGRFTISRDNAKNTVYLQMNSLKPEDTAVYYCNARVYWYYPMDYWGQGTQVTVSS | low polyreactivity
15 | QVQLVESGGGLFQAGGSLRLSCAPSGRTFSHYAMGWYRQAPGKERELVAAISWSGGRTYYADSVKGRFTISRYNAKNTVYLQMNSLKPEDTAVYYCATDKVSNRRYDYWGQGTQVTVSS | high polyreactivity
16 | QVQLVESGGGLFQAGGSLRLSSAASGSIFINNGMGWYRQAPGKESELVAAIYSGGSTYADSVKGRFTISRDNAKNTVYLQMNSLKPEDTAVYYCAVDVWLRGLYGYEYDYWGQGTQVTVSS | low polyreactivity

Row | Sequence | polyreactivity (PSR sort gate)
17 | QVQLVESGGGLFQAGGSLRLSSAASGSTFDPYAMGWSRQAPGKERELVATITYSGGRTYYADSVKGRFTISGDNAKNTVYLQMNSLKPEDTAVYYCAVDVVYWGGDYCGQGTQVTVSS | low polyreactivity
18 | QVQLVESGGGLFQAGGSLRLTCAASGSIFTVYSIGLYRQAPGKERELVAGISSGAGTTYADSVKGRFTISRDNAKNTVYLQMNSLIPEVTAVYYCAAYTWDTDHYWYGYVPYDYWGQGTQVTVSS | low polyreactivity
19 | QVQLVESGGGLFQAGGSLRVSCAASGRTFRVYVMGSYRQAPGKERELVAAIRASGGITYYADSVKGRFTLSRDTAKNTVYLQMNSLKPEDTAVYYCAARPRTRYDYWGQGTQVTVSS | high polyreactivity
20 | QVQLVESGGGLFQAGGSLSLSCAASGRIYNPNALGWYRQAPGKERELVAAITSGDSTNYADSVKGRFTISRDNAKNTVYLEMNSLKPEDTAVYYCAADWTYPYNSWGQGTQVTVSS | low polyreactivity
21 | QVQLVESGGGLFQAGGTLRLSCAATGITFRWYAMGWYRQAPGKEMELVAAITYRGGSTHYSDSVKGRFTISRDNAKNTVYLQMNSLKPEDTAVYYCAVRRWPRYRWSDYWGQGTQVTLSS | low polyreactivity
22 | QVQLVESGGGLFQAGRSLRIRCAASGRILNVYHMGWYRQAPGKERELVAAISSGANTNYAESVKGRFTISRDNAKNTVDLQMNSLKPEDTEVYFCNTEQFYDYDYTFDYWGQGTQVTVSS | low polyreactivity
23 | QVQLVESGGGLFQAGVSLRLSCAASGSTFDYYAMGWYRQPPAKERELVAAIRYRGGRTYYADSVKWRFTISRDNAKNTVYLQLNSLKPEDTAVYYCAALTIQSSKTYDYWGQGTQVTVSS | low polyreactivity
24 | QVQLVESGGGLFQAVGSLRLSCAASGSTFIPNAMGWYRQAPGKERELVADISYSGGTTYYADSVKGRFTISRDNAKKTVYLQMNSLKPEDTSVYYCAAVYYTSFYSWPPYDYWGQGTQVTVSS | low polyreactivity
25 | QVQLVESGGGLFQEGGSLRLSCAPSGSTLVFYAMGWYRHAPGKERELVAAITRSGGSTYYADSVKGRFTISRDNAKNTVYLQRNSLKPEDTAVYNCAADERYINERVSWGQGTQVTVSS | low polyreactivity
26 | QVQLVESGGGLGHAGGSLRLSCAASGSIFFWYAMGWYRQAPGKERELVAAITQRTGSTYYADSVKGRFTISRDNAKNTVYLQMNSLKPEDTAVYYCAGKRWRRSFTGNYWGLGTQVTVSS | high polyreactivity
27 | QVQLVESGGGLGQAGASLRLICAPSGSIFLIYCMGWYRQSPGKERELVAAITARGGSTYYADSVKGSFTISRDNAKNTVYLQMNSLKPEDTSVYYCNDVGYPDVGAGTYGYWGQGTQVTVSS | low polyreactivity
28 | QVQLVESGGGLGQAGGRLRLSCAASGIYYNAMGWYRQAPGNERELVAAITTGDRTNYADSVKGRFTISRDNAKNTVYLQMNSLKPEDTAVYYCNAVVERLSSTARDFAYDYWGQGTQVTVSS | low polyreactivity
29 | QVQLVESGGGLGQAGGSLRLSCAASGFTFYYYAMGWYRQAPGKERELVAAISYSGGSTYYADSVKGRFTISRDNAKNTVYLQMNSLKPEDTARYYCAADLSTYSRGFDYWGQGTQVTVSS | high polyreactivity
30 | QVQLVESGGGLGQAGGSLRLSCAASGFTIIYYAMGWYRQAPGKERELVAAISRRGGRTYYADSVKGRFTISRDNAKNTVYLQMNSLKPEDTAVYYCAADGSGTSISYRYKHDYWGQGTQVTVSS | high polyreactivity
31 | QVQLVESGGGLGQAGGSLRLSCAASGIIFQYYAMGWYRPAPGKERELVAVISSSGTNTYYADSVKGRFTISRDNAKNTVYLQMNSLKPEDTAVYYCNKVYRWFTRFDYWGQGTQVTVSS | high polyreactivity
32 | QVQLVESGGGLGQAGGSLRLSCAASGRIFNTYAMGWYRQAPGKERELVAAITRSAGRTYYADSVKGRFTISRDNAKNTGYLQMNSQKPEDTAVYYCAAQYNYGQRSGPYGYWGQGTQVTVSS | low polyreactivity
